Results as given in patent US8080531B2, “Methods for modulating checkpoint activation through TopBP1” (California Institute of Technology, priority 2006, dated 2011).
Blank lines part the entries; values can stand above or below the molecule they belong to.

Columns and labels:
Xatr-Xatrip [1] = test: Kinase assay of Xatr-Xatrip complexes isolated from Xenopus egg extracts; format: biochemical; conditions: for activation of Xatr kinase activity toward PHAS-I: isolated Xatr-Xatrip complexes, 32P-ATP, result in words
Xatr-Xatrip, sequence (Q9DE14 whole entry, the tested form may be a part): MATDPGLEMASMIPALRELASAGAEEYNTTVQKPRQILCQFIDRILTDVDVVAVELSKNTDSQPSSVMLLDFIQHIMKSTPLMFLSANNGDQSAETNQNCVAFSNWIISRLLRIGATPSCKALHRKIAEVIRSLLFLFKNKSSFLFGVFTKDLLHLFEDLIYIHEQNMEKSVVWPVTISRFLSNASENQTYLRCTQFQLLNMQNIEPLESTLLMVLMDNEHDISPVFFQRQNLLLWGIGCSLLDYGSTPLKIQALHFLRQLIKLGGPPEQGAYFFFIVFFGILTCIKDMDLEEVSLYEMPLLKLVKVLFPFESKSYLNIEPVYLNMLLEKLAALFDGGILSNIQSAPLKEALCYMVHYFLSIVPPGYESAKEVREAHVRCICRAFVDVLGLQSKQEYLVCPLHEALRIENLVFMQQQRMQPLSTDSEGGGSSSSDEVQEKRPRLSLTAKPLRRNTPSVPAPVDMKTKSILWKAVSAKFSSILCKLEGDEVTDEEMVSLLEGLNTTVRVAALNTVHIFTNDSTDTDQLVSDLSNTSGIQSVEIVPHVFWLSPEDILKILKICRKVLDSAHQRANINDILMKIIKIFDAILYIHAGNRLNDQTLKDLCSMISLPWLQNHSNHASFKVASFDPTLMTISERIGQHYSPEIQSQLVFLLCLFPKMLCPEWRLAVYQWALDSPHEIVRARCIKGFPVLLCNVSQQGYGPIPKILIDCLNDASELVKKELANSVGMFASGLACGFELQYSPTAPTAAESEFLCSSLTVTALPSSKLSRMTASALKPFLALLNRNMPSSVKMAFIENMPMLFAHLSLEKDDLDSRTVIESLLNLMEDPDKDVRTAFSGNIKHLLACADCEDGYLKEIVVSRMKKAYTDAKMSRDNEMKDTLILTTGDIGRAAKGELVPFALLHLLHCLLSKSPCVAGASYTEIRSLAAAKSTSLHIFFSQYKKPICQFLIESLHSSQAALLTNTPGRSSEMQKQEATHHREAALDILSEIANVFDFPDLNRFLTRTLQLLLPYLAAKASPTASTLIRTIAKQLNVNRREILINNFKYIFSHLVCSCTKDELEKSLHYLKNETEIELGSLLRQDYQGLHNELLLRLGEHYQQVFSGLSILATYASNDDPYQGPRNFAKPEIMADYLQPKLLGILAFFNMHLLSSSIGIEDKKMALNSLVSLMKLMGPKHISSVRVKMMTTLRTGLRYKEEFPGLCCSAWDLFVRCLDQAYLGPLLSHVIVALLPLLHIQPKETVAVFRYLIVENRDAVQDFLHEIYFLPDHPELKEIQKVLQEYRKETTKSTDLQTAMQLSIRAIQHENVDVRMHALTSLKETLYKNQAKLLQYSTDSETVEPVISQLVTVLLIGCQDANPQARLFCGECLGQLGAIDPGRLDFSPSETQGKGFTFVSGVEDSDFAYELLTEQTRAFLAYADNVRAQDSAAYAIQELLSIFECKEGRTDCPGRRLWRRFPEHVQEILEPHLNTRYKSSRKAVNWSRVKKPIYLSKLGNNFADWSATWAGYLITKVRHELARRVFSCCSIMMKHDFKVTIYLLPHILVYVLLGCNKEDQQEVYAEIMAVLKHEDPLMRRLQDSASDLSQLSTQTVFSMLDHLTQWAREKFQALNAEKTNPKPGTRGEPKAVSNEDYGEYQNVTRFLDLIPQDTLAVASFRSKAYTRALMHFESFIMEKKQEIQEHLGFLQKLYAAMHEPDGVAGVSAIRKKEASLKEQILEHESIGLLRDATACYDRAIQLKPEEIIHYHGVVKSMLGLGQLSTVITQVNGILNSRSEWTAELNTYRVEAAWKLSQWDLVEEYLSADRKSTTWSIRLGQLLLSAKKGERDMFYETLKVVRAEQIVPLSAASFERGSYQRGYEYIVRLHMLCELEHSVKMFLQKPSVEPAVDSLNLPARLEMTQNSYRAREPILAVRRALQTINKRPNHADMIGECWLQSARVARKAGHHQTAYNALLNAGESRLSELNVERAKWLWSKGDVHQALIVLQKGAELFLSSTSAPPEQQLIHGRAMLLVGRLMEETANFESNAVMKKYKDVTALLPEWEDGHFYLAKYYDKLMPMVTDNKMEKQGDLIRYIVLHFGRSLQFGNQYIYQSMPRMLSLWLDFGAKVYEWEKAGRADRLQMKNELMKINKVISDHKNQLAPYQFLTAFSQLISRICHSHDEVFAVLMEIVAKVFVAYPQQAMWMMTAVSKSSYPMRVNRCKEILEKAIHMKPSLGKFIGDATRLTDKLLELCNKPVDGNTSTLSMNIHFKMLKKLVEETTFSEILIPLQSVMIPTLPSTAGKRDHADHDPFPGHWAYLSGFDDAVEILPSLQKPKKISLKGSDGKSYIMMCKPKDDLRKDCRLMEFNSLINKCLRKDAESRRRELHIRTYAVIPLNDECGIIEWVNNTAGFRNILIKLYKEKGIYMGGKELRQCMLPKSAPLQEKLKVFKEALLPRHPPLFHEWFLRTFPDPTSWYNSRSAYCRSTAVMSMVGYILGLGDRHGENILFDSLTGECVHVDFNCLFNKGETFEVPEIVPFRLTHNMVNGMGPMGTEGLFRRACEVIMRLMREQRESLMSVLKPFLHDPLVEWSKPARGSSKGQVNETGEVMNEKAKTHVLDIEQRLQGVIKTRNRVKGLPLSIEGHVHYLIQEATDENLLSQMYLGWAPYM
Source text: Specifically, Applicants first isolated Xatr from egg extracts by pull-downs with FLAG-tagged Xenopus ATRIP (Xatrip). For these experiments, Applicants used both full-length Xatrip and an N-terminal truncation mutant (ΔN222) that supports normal Xatr-dependent activation of Xchk1 in egg extracts (Kumagai et al., 2004; Kim et al., 2005).
Applicants eluted the beads with FLAG peptide and mixed the eluates with a His6-tagged version of XtopBP1 that had been purified from baculovirus-infected insect cells (FIG. 1B). Finally, Applicants added ^32P-ATP and PHAS-I, a commonly used model substrate for ATR (Abraham, 2001).
Xatrip-FLAG and XatripΔN222-FLAG (20 ng/μl each) were incubated in interphase extracts containing anti-FLAG M2 antibody beads (Sigma) for 60 min at room temperature. The beads were isolated and washed twice with buffer A (10 mM HEPES-KOH (pH 7.5), 150 mM NaCl, 0.1% CHAPS, and 2.5 mM EGTA) and twice with HEPES-buffered saline (HBS; 10 mM HEPES-KOH (pH 7.5) and 150 mM NaCl). Xatr-Xatrip complexes were eluted in one-tenth the volume of the egg extract in HBS containing 0.1 mg/ml 3×-FLAG peptide (Sigma) for 60 min at 4° C. Eluates (2 μl) were used for kinase assays as described below.
(§1) Samples were incubated in 20 μl kinase buffer (50 mM Tris-HCl (pH 7.5), 10 mM MgCl2, 1 mM dithiothreitol, 100 μM nonradioactive ATP, and 100 μCi/ml [γ-^32P]ATP) containing 12.5 μg/ml PHAS-I or 50 μg/ml GST-Xmcm2 (62-122) for 30 min at room temperature. GST-XtopBP1 (972-1279) was added at a final concentration of 100 μg/ml unless indicated otherwise. In some cases, GST-Xmcm2 (62-122), GST-Xchk1 (306-352), or full-length Xchk1-Myc-His6 were used as substrates with only […] nonradioactive ATP. Reactions were terminated by boiling in gel sample buffer.

Xchk1 [2] = test: Checkpoint-dependent phosphorylation of Xchk1 in XtopBP1-depleted egg extracts with aphidicolin and sperm nuclei; format: biochemical, Xenopus; conditions: added back to XtopBP1-depleted extract, aphidicolin
Source text: Applicants proceeded to remove endogenous XtopBP1 from egg extracts by immunodepletion with anti-XtopBP1 antibodies (FIG. 7C). In parallel, Applicants used control antibodies to prepare mock-depleted extract. Next, Applicants added back wild-type His6-XtopBP1 or the His6-XtopBP1-W1138R mutant to aliquots of the XtopBP1-depleted extract. Finally, Applicants added aphidicolin and demembranated Xenopus sperm nuclei to the various extracts in order to create stalled replication forks and then examined phosphorylation of Xchk1 (FIG. 7D).
(§2) Extracts from Xenopus eggs were prepared as described (Kumagai and Dunphy, 2000). A DNA replication checkpoint response was induced by addition of 50 μg/ml aphidicolin into extracts containing demembranated sperm nuclei (3000 per μl) (Kumagai and Dunphy, 2000). To monitor DNA replication, extracts containing 1000 sperm nuclei/μl were incubated with [α-^32P]dATP (Yoo et al., 2004).
Xatr and Xatrip were immunodepleted as described (Kumagai et al., 2004). For immunodepletion of XtopBP1, we incubated 100 μl egg extract twice for 60 min with 10 μl Affiprep protein A beads (BioRad) containing 35 μg anti-XtopBP1 antibodies.

[3] = tested on: chromosomal DNA replication; test: Chromosomal DNA replication in XtopBP1-depleted egg extracts; format: biochemical, Xenopus; conditions: XtopBP1-depleted extracts with protein added back
Experimental: In conjunction with these experiments, Applicants also examined chromosomal DNA replication in extracts containing either wild-type or W1138R His6-XtopBP1. […] Therefore, the defect in phosphorylation of Xchk1 in the extracts containing this mutant is not due to a failure in the assembly of DNA replication forks.
as §2

Xatm = test: Kinase assay of immunoprecipitated Xatm toward PHAS-I; format: biochemical, Xenopus; conditions: Xatm immunoprecipitated from egg extracts
Experimental: Applicants have also shown that TopBP1 is a specific activator of ATR and not a general activator of the PIKK family. Specifically, Applicants immunoprecipitated both Xatr and Xatm in parallel from Xenopus egg extracts and then incubated the immunoprecipitates with GST-XtopBP1 (972-1279) (FIG. 3F).
as §1

Xatr-Xatrip [4] = test: Glutathione bead pull-down of Xatr and Xatrip from egg extracts; format: binding, Xenopus
Experimental: (§3) Specifically, Applicants incubated glutathione beads containing GST-XtopBP1 (972-1279) in egg extracts, reisolated the beads, and performed immunoblotting for both Xatr and Xatrip. […] In addition, in other experiments, there was no binding of Xatr or Xatrip to beads containing GST fusions of the 1-348, 333-646, or 623-984 segments from XtopBP1 (data not shown).
(§4) Applicants also tested to see if the association of XtopBP1 with Xatr depends upon Xatrip. For this experiment, Applicants removed endogenous Xatrip from egg extracts by immunodepletion with anti-Xatrip antibodies. As described previously, this procedure leaves behind approximately 30% of the endogenous Xatr, the fraction that is not in a complex with Xatrip (Kumagai et al., 2004). Next, Applicants added GST-XtopBP1 (972-1279) to the Xatrip-depleted extracts and to mock-depleted extracts that had been prepared in parallel.

human ATR [5] = biological target: T1, human ATR (Homo sapiens, UniProt Q13535); test: Kinase assay of recombinant human FLAG-ATR against S92 of GST-Xmcm2 (62-122); format: biochemical; conditions: wild-type human FLAG-ATR from U2OS nuclear extracts
T1 construct: expressed in transfected cells; host or cells: U2OS GW33 cells (doxycycline-inducible), nuclear extract, anti-FLAG purification
Experimental: (§5) Specifically, Applicants isolated wild-type and kinase-deficient versions of FLAG-tagged human ATR from nuclear extracts of U2OS cells that conditionally express these proteins (FIG. 5C). The recombinant ATR proteins were purified with anti-FLAG magnetic beads under conditions that preserve the binding of endogenous ATRIP (Ünsal-Kacmaz and Sancar, 2004). Next, Applicants incubated both the wild-type and kinase-deficient FLAG-ATR preparations in the absence or presence of GST-XtopBP1 (972-1279), and measured kinase activity against S92 of the GST-Xmcm2 (62-122) peptide.
as §1
(§6) U2OS cells conditionally expressing wild-type (GW33) or kinase-deficient (GK41) human FLAG-ATR were cultured as described (Nghiem et al., 2001). Cells were induced with 1 μg/ml doxycycline for 48 hr. Nuclear extracts were prepared as described (Dignam et al., 1983) except that nuclei were lysed by brief sonication and the concentration of NaCl in the nuclear isolation buffer was reduced to 350 mM in order to preserve the binding of endogenous ATRIP to recombinant ATR. FLAG-ATR proteins were isolated by an overnight incubation with anti-FLAG antibodies bound to protein G-magnetic beads (Dynal) and eluted with 3×-FLAG peptide.

human ATR [6] = test: as above; format: biochemical
Experimental: as §5, §1, §6

Xchk1 [7] = test: Ectopic phosphorylation of 35S-Xchk1 in Xenopus egg extracts without checkpoint-inducing DNA; format: biochemical; conditions: 35S-Xchk1, tautomycin, no checkpoint-inducing DNA template
Experimental: Because the GST-XtopBP1 (972-1279) fragment could activate Xatr in vitro without the inclusion of DNA, Applicants reasoned that ectopic addition of this fragment to Xenopus egg extracts might also be able to trigger the Xatr-dependent phosphorylation of Xchk1 even in the absence of a checkpoint-inducing DNA template.
as §2

Xatr-Xatrip [8] = biological target: Xatr-Xatrip (Xenopus laevis, UniProt Q9DE14); test: Glutathione bead pull-down of Xatr and Xatrip from egg extracts; format: binding; set-up: incubated glutathione beads containing GST-XtopBP1 (972-1279) in egg extracts, reisolated the beads, and performed immunoblotting for both Xatr and Xatrip; Applicants removed endogenous Xatrip from egg extracts by immunodepletion with anti-Xatrip antibodies; from tissue; host or cells: Xenopus egg extract; conditions: Xatrip-depleted extracts
Xatr-Xatrip (Xenopus laevis, UniProt Q9DE14), sequence (Q9DE14 whole entry): as the sequence (Q9DE14 whole entry, the tested form may be a part) above
Experimental: as §3, §4

Molecule: His6-XtopBP1-W1138R: version of full-length His6-XtopBP1 with the W1138R mutation
- activation of Xatr kinase activity toward PHAS-I (Xatr-Xatrip [1]): unable to activate Xatr
- rescue of phosphorylation of Xchk1 (Xchk1 [2]): could not restore the phosphorylation of Xchk1
- chromosomal DNA replication [3]: not inhibited

- activation of immunoprecipitated Xatr (Xatr-Xatrip [1]; Xatr immunoprecipitated from egg extracts, PHAS-I): strong activation
- phosphorylation of GST-Xchk1 (306-352) peptide and full-length Xchk1-Myc-His6 on S344 (Xatr-Xatrip [1]; substrates GST-Xchk1 (306-352) and Xchk1-Myc-His6): readily induced phosphorylation
- activation of Xatm (Xatm): no activation of Xatm
- binding of Xatr to the XtopBP1 fragment (Xatr-Xatrip [4]; Xatrip-depleted extracts plus recombinant XatripΔN222-FLAG): restore the binding
- binding of Xatr and Xatrip to glutathione beads (Xatr-Xatrip [4]; egg extracts, immunoblotting): could clearly detect binding
- binding of Xatr to the XtopBP1 fragment (Xatr-Xatrip [4]; mock-depleted extracts): good binding
- binding of Xatr to the XtopBP1 fragment (Xatr-Xatrip [8]): no binding
B1: GST-XtopBP1 (972-1279): GST fusion protein containing conserved region between BRCT domains VI and VII (residues 972-1279) of XtopBP1 (protein)
chain: EQQKRVPEALYPHTYNPKMSLDISAVQDGSYTASKFSADTSLQQDENSELQLQQNNKFGETSDDQVKKAAGDGNPQNPSKDVKGALTQTLEMRENFQRQLQEFMSATSVVKPRGSVGRAGFDNSPCTPEGARSTRNGRSRVLEALRQSRQAMTDLNTEPSQNEQIIWDDPTAREERAKLVSNLQWPDSPSQYSEQLQHNMNDAGGNYTPAKESLTDSEIAELEACEFEPKSAMRTPVIENNLQSPTKPDHLTPTPQAPSIAFPLANPPVAPQPREKPVQPFSKEETLKERRFQLSSLDPQERIDYSQL
modifications: left off: a dimerising Fc or GST
notes: GST fusion protein containing conserved region between BRCT domains VI and VII (residues 972-1279) of XtopBP1
- activation of Xatr kinase activity toward PHAS-I (Xatr-Xatrip [1]): induced activation of Xatr as effectively as full-length XtopBP1
- Xatr-dependent phosphorylation of GST-Xmcm2 (62-122) peptide (Xatr-Xatrip [1]; substrate GST-Xmcm2 (62-122), S92): induced a strong Xatr-dependent phosphorylation
- kinase activity of wild-type FLAG-ATR (human ATR [5]): large increase
- kinase activity in mock preparation of magnetic beads (human ATR [6]; beads lacking anti-FLAG antibodies): did not induce any kinase activity
- activity of kinase-deficient FLAG-ATR (human ATR [6]; kinase-deficient human FLAG-ATR): neither the intact nor W1138R mutant form of GST-XtopBP1 (972-1279) had any effect
- phosphorylation of Xchk1 in egg extracts (Xchk1 [7]): very robust phosphorylation
